The record followed here is publication PMC5134900 (Cell, 2016).

As usually defined, the Kd is the concentration at which binding is half-saturated. Higher therefore signals lower affinity.

One experiment has as its target SIRT3-HA (HeLa) (human). Kind of experiment: proximity ligation.
Experiment [1] deals with T1, SIRT3-FLAG (human, UniProt Q9NTG7 118-399).
T1 sequence (looked up): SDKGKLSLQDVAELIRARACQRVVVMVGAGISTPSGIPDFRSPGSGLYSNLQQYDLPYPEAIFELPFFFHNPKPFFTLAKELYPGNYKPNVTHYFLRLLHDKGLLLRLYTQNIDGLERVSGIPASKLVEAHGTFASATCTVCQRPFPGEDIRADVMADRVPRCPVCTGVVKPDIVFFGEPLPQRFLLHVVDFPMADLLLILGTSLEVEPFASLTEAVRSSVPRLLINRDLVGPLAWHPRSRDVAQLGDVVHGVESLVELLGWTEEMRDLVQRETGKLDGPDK
The experiment is described as follows: BLI. In general terms: BLI is a label-free optical method that tracks binding on a fibre tip over time.

The target in experiment [2] is T1, SIRT3-FLAG. Kind of experiment: BLI. The source holds these as a separate data set.

Where two headings read alike, the source gives them in different places. Bounds are passed on as bounds.

B1: ATP5O (endogenous, HeLa) (natural protein)
chain: FAKLVRPPVQVYGIEGRYATALYSAASKQNKLEQVEKELLRVAQILKEPKVAASVLNPYVKRSIKVKSLNDITAKERFSPLTTNLINLLAENGRLSNTQGVVSAFSTMMSVHRGEVPCTVTSASPLEEATLSELKTVLKSFLSQGQVLKLEAKTDPSILGGMIVRIGEKYVDMSVKTKIQKLGRAMREIV
In the experiment with SIRT3-HA (HeLa) (human), B1 showed a PLA signals per cell (signals per cell) of under 10 and a percent of cells with PLA signal of 40%.

B2: ATP5O (recombinant) (domain or fragment, human, UniProt P48047 46-213, looked up)
chain: YSAASKQNKLEQVEKELLRVAQILKEPKVAASVLNPYVKRSIKVKSLNDITAKERFSPLTTNLINLLAENGRLSNTQGVVSAFSTMMSVHRGEVPCTVTSASPLEEATLSELKTVLKSFLSQGQVLKLEAKTDPSILGGMIVRIGEKYVDMSVKTKIQKLGRAMREIV
On to B2, for which the Kd with SIRT3-FLAG [1] came to 100 nM; with SIRT3-FLAG [2] it was 400 nM.
